Assay results: the supplement of paper PMC10724198
± gives the standard deviation of the averaged measurements.

Test system: Saccharomyces cerevisiae
Experiment: protein stability index of tFT-peptide fusion (C-terminal peptide) (PSI (0-1 scale)); higher = more stable (slower turnover)
Conditions: genetic background: wild type; temperature: 30 C
Method: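 Multiplexed protein stability (MPS) profiling in S. cerevisiae. Random 12-aa peptides (tFT-X12 library) are fused to the C-terminus of a sfGFP-mCherry tandem fluorescent timer, after mCherry and a GGGS linker. Cells are FACS-sorted into 8 mCherry/sfGFP bins and deep-sequenced. The protein stability index (PSI) is the read-weighted bin average, scaled from 0 (unstable) to 1 (stable). Only peptides with >10 reads are reported; cells were grown at 30 °C in SC-His with glucose.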
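Further: PSI is a weighted mean of sequencing reads over stability bins, variants kept only with over 10 reads, mCherry proximal and sfGFP distal, peptide attached via GGGS linker.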

Row | Sequence | protein stability index
1 | VGVCVGWDGRLW | 0.691 ± 0.025
2 | KKRKKDKRSQER | 0.671 ± 0.068
3 | SPPRPPRPPRRA | 0.599 ± 0.02
4 | GAVVGGRCFCRR | 0.715 ± 0.012
5 | ESDLRFPGVPCI | 0.696 ± 0.011
6 | GLGEWGGRGVCG | 0.692 ± 0.015
7 | TPKWRRRLNQGL | 0.719 ± 0.032
8 | KKGYKTVETRIS | 0.69 ± 0.082
9 | PPPLPPPAPPPR | 0.663 ± 0.014
10 | KDTDTAHETERK | 0.697 ± 0.033
11 | RSVWVGGVTNLG | 0.657 ± 0.063
12 | GKALESLEGQFT | 0.728 ± 0.019
13 | ANKIRMKYMRTG | 0.6139 ± 0.0027
14 | TRETKKSIKKQN | 0.673 ± 0.058
15 | GGGVGLRGGWDG | 0.71 ± 0.044
16 | GPPPPPPPASPH | 0.715 ± 0.1
17 | LLDGASALIFGG | 0.617 ± 0.057
18 | GCGVGVGASVGR | 0.636 ± 0.025
19 | SRGSTGERGRGK | 0.669 ± 0.027
20 | VPGQRRPSQSPR | 0.653 ± 0.21
21 | VSLALYSSVSIC | 0.5382 ± 0.0049
22 | IGCTRSREESRE | 0.689 ± 0.013
23 | YEPNYKEKKTQY | 0.69 ± 0.017
24 | PPRLPPLPPSYP | 0.777 ± 0.14
25 | SVSVLSPPPLPP | 0.636 ± 0.015

Row | Sequence | protein stability index
26 | SISYCSAFGGID | 0.69655 ± 7.1e-05
27 | GRVRFVCVGLGG | 0.639 ± 0.047
28 | EKSNQKSRRNSR | 0.638 ± 0.15
29 | GRIRGCSPFPLW | 0.63 ± 0.094
30 | FESYLRLGLGGR | 0.667 ± 0.09
31 | PPLLQPPPPRLL | 0.736 ± 0.048
32 | PFPPSAAPPLPF | 0.593 ± 0.068
33 | LLCHAGRTPRPP | 0.646 ± 0.013
34 | PSSPLLGPPPPD | 0.677 ± 0.01
35 | GLPSHPAPPSTN | 0.657 ± 0.11
36 | VVGQGYDSGIRY | 0.724 ± 0.024
37 | LPLLALPLALHP | 0.653 ± 0.0077
38 | NSCVFCLCHDLA | 0.6991 ± 0.006
39 | REPPFFRLSPQV | 0.722 ± 0.042
40 | APIWRSLRGLAI | 0.555 ± 0.18
41 | FCFFLLGLFCNL | 0.6 ± 0.062
42 | PPRPVPRPHPRP | 0.674 ± 0.011
43 | RAHSGSTCCGAQ | 0.698 ± 0.04
44 | GITSGRAVGGRA | 0.713 ± 0.011
45 | WGCCRPERNCAV | 0.702 ± 0.02
46 | CMGSDKAGKSVA | 0.681 ± 0.016
47 | RPSPLPALASSL | 0.65 ± 0.037
48 | VLLLSPPLRPCP | 0.69 ± 0.024
49 | ISRSLVDHQARP | 0.695 ± 0.045
50 | QSQGTRLAPVTR | 0.729 ± 0.068

Row | Sequence | protein stability index
51 | FPGGGARAGVGV | 0.724 ± 0.025
52 | LPLYYPPGTREL | 0.708 ± 0.027
53 | PQYGTNQGRWTG | 0.705 ± 0.055
54 | SLFFSTVELFFV | 0.6707 ± 0.0053
55 | ERSHGEKGVFYL | 0.73 ± 0.031
56 | KKNHTQIKEVPR | 0.6943 ± 0.00099
57 | VWAREGLGLRPP | 0.673 ± 0.11
58 | PRLPPLRPPPSP | 0.7079 ± 0.0064
59 | HRGAVRGGSEIW | 0.729 ± 0.033
60 | SPLISYQPPTDP | 0.725 ± 0.061
61 | TVFPPLPTLPCV | 0.792 ± 0.1
62 | RLFASNPALSNL | 0.709 ± 0.027
63 | RGRWRVGWGVGD | 0.67 ± 0.017
64 | GRGRDDKTYKKT | 0.669 ± 0.031
65 | RWHLCERFGGRV | 0.643 ± 0.1
66 | GYDEREKPVLLR | 0.753 ± 0.042
67 | SSLPRLGSSPRR | 0.66 ± 0.019
68 | LHSIPLNPYLIA | 0.712 ± 0.16
69 | GRGGLGGGEWDR | 0.711 ± 0.0028
70 | GPFDVLPEPNPG | 0.6348 ± 0.0037
71 | LWGVGWPLLGGL | 0.691 ± 0.04
72 | RFWGWCSAVLSS | 0.622 ± 0.056
73 | GIGFHSREIGER | 0.66 ± 0.055
74 | NCFIPPARVFPS | 0.686 ± 0.028
75 | HDSAGVCFHYWL | 0.644 ± 0.011

Row | Sequence | protein stability index
76 | FDAWTHAGMYNW | 0.757 ± 0.058
77 | RHVCPLLYPCSS | 0.635 ± 0.036
78 | LFIVSFSPGFPF | 0.635 ± 0.11
79 | GREGELDKKKWH | 0.723 ± 0.051
80 | PLPPVPRTPTPR | 0.662 ± 0.075
81 | IALVFCPMNGRI | 0.686 ± 0.014
82 | GVFFVRAGSVYC | 0.579 ± 0.019
83 | PAYVSTLPPLLL | 0.694 ± 0.086
84 | GFRPVVAGIGHS | 0.6632 ± 0.0061
85 | LSRSTSYILIII | 0.515 ± 0.039
86 | PSSVRPFDPLLC | 0.724 ± 0.063
87 | FCSDRPWGPCRR | 0.579 ± 0.08
88 | LSLTCLSSPPPA | 0.654 ± 0.034
89 | CDSSSVGYLVVR | 0.655 ± 0.014
90 | TEDGSYGESEQA | 0.642 ± 0.023
91 | TGLLGLVGSQVP | 0.67 ± 0.016
92 | TLDGGESSVVAV | 0.685 ± 0.025
93 | LFGLCLAGFCVP | 0.625 ± 0.046
94 | VYSPVEHLLATF | 0.59 ± 0.1
95 | TVVVGHSRLVVG | 0.703 ± 0.027
96 | SNLLKQHKDLFL | 0.7162 ± 0.0027
97 | SKPEEAGADLSD | 0.6 ± 0.086
98 | PVSCLGNQACYV | 0.628 ± 0.073
